Substitutions are numbered along the chain they refer to. One block for each binder: values may come before it.
Columns and labels:
[1] = target: T1, cynomolgus monkey ST2 on cynomolgus CD4+ T cells (cynomolgus monkey, UniProt Q01638 19-556 (human entry)); assay: cell-based or functional assay
T1 chain: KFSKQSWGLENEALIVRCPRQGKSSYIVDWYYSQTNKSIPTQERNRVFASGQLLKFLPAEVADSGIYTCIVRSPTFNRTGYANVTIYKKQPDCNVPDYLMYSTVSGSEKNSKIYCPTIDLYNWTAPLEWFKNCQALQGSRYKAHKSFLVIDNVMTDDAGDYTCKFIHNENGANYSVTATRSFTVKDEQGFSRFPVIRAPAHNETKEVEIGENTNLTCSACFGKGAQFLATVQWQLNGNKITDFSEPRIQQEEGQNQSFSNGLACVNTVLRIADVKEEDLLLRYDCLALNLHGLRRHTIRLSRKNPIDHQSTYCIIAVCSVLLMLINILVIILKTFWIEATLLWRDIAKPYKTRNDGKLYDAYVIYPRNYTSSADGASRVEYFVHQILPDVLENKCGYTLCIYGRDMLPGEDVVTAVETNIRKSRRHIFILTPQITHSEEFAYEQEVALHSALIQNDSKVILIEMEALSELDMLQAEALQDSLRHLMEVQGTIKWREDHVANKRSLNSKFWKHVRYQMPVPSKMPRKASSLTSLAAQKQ

human ST2 (SPR analyte) [2] = target: T2, human ST2 (SPR analyte) (human, UniProt Q01638 19-322); assay: SPR Biacore 4000, kd at pH 5.5 against kd at pH 7.4
T2 construct: The ST2 reagent injected in SPR; leader is 1-18; also called hu ST2
T2 sequence: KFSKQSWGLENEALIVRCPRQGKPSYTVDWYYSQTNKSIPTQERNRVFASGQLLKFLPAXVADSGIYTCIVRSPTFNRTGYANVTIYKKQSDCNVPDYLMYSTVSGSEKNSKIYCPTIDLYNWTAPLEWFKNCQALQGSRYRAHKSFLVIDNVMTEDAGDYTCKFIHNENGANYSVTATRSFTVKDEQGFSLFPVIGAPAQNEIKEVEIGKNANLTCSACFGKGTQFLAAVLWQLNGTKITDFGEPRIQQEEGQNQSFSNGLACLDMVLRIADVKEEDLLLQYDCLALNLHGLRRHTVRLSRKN
Protocol: (§1) The association (5 min) rates at pH 7.4 and dissociation (10 min) rates at pH 5.5 and 7.4 were monitored at a flow rate of 30 uL/min. The reference subtracted data was fit to a 1:1 model in Scrubber.

human ST2 (SPR analyte) [3] = target: T2, human ST2 (SPR analyte); assay: SPR Biacore 4000, association at pH 7.4, dissociation at pH 7.4 (estimated kd)
Protocol: as §1

[4] = target: T3, human ST2 on human primary cells (human, UniProt Q01638 19-556); assay: cell-based or functional assay
T3 sequence: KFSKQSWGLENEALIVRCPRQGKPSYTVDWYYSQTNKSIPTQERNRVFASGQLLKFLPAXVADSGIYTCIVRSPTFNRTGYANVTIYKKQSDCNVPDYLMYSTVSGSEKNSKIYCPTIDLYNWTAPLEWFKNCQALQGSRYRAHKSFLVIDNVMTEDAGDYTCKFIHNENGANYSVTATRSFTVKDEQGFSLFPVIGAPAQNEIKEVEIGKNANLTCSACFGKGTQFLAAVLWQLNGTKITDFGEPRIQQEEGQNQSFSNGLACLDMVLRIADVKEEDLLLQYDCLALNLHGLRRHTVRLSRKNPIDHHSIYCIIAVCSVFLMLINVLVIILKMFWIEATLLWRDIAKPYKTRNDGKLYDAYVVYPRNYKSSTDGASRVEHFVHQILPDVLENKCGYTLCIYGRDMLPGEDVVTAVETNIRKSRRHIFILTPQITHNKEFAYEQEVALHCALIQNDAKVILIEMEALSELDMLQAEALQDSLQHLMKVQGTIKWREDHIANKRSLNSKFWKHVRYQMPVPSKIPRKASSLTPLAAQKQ

[5] = target: T4, soluble human ST2-FLAG His (human, UniProt Q01638 19-322, limits assumed); assay: AlphaScreen, biotinylated human IL-33 with human ST2-FH, antibody at 12.5 ug/ml
T4 construct: also called human ST2-FH; 6xhistidine tagged human ST2; not shown: FLAG and 6x histidine tags
T4 sequence: T2 sequence

human ST2 (SPR analyte) [6] = target: T2, human ST2 (SPR analyte); assay: SPR Biacore 3000, captured antibody, ST2 analyte, 25 C
[7] = target: T5, cynomolgus monkey ST2 (SPR analyte) (cynomolgus monkey, UniProt Q01638 19-322 (human entry)); assay: as above
T5 construct: The cyno ST2 reagent injected in SPR; leader is 1-18; also called cy ST2
T5 chain: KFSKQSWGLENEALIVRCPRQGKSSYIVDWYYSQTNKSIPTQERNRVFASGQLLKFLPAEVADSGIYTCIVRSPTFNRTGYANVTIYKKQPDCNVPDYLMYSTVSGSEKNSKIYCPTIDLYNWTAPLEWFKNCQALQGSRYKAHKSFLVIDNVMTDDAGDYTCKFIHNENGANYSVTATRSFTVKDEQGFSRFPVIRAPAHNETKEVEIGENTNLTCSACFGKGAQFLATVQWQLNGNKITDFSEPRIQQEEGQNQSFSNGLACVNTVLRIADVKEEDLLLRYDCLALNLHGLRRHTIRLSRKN

human ST2 (SPR analyte) [8] = target: T2, human ST2 (SPR analyte); assay: SPR Biacore 4000, association at pH 7.4, dissociation at pH 5.5 (estimated kd)
Protocol: as §1

[9] = target: T3, human ST2 on human primary cells; assay: cell-based or functional assay; remark: listed apart in the source
[10] = target: T6, biotinylated human ST2-Fc (human, UniProt Q01638 19-331, biotinylated); assay: AlphaScreen, IL-33 mediated association of biotinylated human ST2-Fc with human AcP-FH, antibody at 12.5 ug/ml
T6 construct: also called ST2-Fc fusion protein; not shown: human antibody Fc domain
T6 sequence: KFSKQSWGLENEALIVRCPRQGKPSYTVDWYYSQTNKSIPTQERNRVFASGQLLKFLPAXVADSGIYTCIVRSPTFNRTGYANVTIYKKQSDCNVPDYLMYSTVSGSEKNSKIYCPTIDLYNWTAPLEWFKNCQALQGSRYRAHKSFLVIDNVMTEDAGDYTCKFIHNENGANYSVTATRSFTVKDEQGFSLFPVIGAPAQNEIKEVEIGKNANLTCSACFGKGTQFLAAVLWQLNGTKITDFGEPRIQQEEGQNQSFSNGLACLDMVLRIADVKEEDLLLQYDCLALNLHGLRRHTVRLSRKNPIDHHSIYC
Protocol: In the second assay, antibodies were evaluated for the ability to inhibit the IL-33 mediated association of ST2 with the co-receptor AcP. […] The ST2/AcP AlphaScreen was conducted in 8 ul reactions in a 384 well optiplate (Perkin Elmer). […] After the addition of all assay components the plates were incubated overnight in the dark at room temperature. The next day the plates were read on a 2103 Envision multilable reader (Perkin Elmer) using the same parameters as above for the first assay.

human ST2 (SPR analyte) [11] = target: T2, human ST2 (SPR analyte); assay: SPR ProteOn XPR-36, captured antibody, ST2 analyte, 25 C
[12] = target: T5, cynomolgus monkey ST2 (SPR analyte); assay: as above

B1: Ab1 (antibody, human IgG2, kappa, V domains shown)
VH: QVQLVQSGAEVKKPGASVKVSCKVSGYTLTELSIHWVRQAPGKGLEWMGGFGPEDGETIYAQKFQGRVTMTEDTSTDTAYMELSSLRSEDTAVYYCTTEDSSGLFDYWGQGTLVTVSS
VL: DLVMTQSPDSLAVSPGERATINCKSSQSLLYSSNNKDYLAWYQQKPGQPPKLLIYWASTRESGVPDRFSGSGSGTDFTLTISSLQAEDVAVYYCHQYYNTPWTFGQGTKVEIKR
notes: fully human anti-ST2 antibody
IC-50, cynomolgus monkey CD4+ T cell IFNγ release assay (IL-33, IL-2 and IL-12p70 stimulation) [1]: 15.8 pM
pH 5.5/pH 7.4 koff fold change (human ST2 (SPR analyte) [2]): 88.1 fold
koff (human ST2 (SPR analyte) [3]): 0.000134 s⁻¹
IC-50, human eosinophil IL-8 release assay (IL-33 and IL-3 stimulation) [4]: 51.5 pM
% inhib ST2-IL33 AS 12.5 ug/ml [5]: 98.1%
Kd (human ST2 (SPR analyte) [6]): 0.0777 nM
koff (human ST2 (SPR analyte) [6]): 0.000111 s⁻¹
kon (human ST2 (SPR analyte) [6]): 1.43e+06 M⁻¹ s⁻¹
Kd [7]: 0.117 nM
koff [7]: 0.000197 s⁻¹
kon [7]: 1.69e+06 M⁻¹ s⁻¹
koff (human ST2 (SPR analyte) [8]): 0.0118 s⁻¹
IC50 of inhibition of human IL-33-induced IL-5 production from human CD4+ T cells [9]: 10.7 nM
% inhib ST2-AcP AS 12.5 ug/ml [10]: 86.9%

B3: Ab4 (antibody, human IgG2, kappa, V domains shown)
VH: QVQLVQSGAEVKKPGASVKVSCEVSGFILTELSVNWVRQAPGKGLEWMGGFDPEDGKTIYAQKFQGRVTLTEDTSTDTAYMELSSLRSEDTAVYYCATWWDFHFDFWGQGTLVTVSS
VL: DFVMTQTPLSLSVTPGQPASISCKSSQSLLHSNGKTYLYWFLQKPGQPPQLLIYEVSNRFSGVPDRFSGSGSGTDFTLKISRVEAEDVGVYYCMQSIQLPLTFGGGTKVEIKR
notes: fully human anti-ST2 antibody
IC-50, cynomolgus monkey CD4+ T cell IFNγ release assay (IL-33, IL-2 and IL-12p70 stimulation) [1]: 4.03 pM
pH 5.5/pH 7.4 koff fold change (human ST2 (SPR analyte) [2]): 16.9 fold
koff (human ST2 (SPR analyte) [3]): 0.000632 s⁻¹
IC-50, human eosinophil IL-8 release assay (IL-33 and IL-3 stimulation) [4]: 14.1 pM
% inhib ST2-IL33 AS 12.5 ug/ml [5]: 98.4%
Kd (human ST2 (SPR analyte) [6]): 0.301 nM
koff (human ST2 (SPR analyte) [6]): 0.000706 s⁻¹
kon (human ST2 (SPR analyte) [6]): 2.35e+06 M⁻¹ s⁻¹
Kd [7]: 0.516 nM
koff [7]: 0.00129 s⁻¹
kon [7]: 2.5e+06 M⁻¹ s⁻¹
koff (human ST2 (SPR analyte) [8]): 0.0107 s⁻¹
% inhib ST2-AcP AS 12.5 ug/ml [10]: 77.8%

B4: Ab6 (antibody, human IgG2, kappa, V domains shown)
VH: EVQLVESGGGLVQPGGSLRLSCAASGFTFSTYDMHWVRQTTGKGLEWVSAIDLAGDTYYPGSVKGRFTISREDAKNSLYLQMNSLRAGDTAVYYCARGGDGYNYDYYGIDVWGQGTTVTVSS
VL: DIVMTQSPLSLPVTPGEPASISCRSSQSLLHSDGYHYLDWYLQKPGQSPQLLIYLGSNRASGVPDRFSGSGSGTDFTLNISRVEAEDVGVYYCMQALQTLTFGGGTKVEIKR
notes: fully human anti-ST2 antibody
IC-50, cynomolgus monkey CD4+ T cell IFNγ release assay (IL-33, IL-2 and IL-12p70 stimulation) [1]: 47.1 pM
IC-50, human eosinophil IL-8 release assay (IL-33 and IL-3 stimulation) [4]: 63 pM
% inhib ST2-IL33 AS 12.5 ug/ml [5]: 98.5%
% inhib ST2-AcP AS 12.5 ug/ml [10]: 71.2%

B7: Ab3 (antibody, human IgG2, kappa, V domains shown)
VH: B4 VH with V37I, T40A, T41P, G44N
VL: B4 VL with S68T, N79K, T99I
notes: fully human anti-ST2 antibody
IC-50, cynomolgus monkey CD4+ T cell IFNγ release assay (IL-33, IL-2 and IL-12p70 stimulation) [1]: 15.2 pM
pH 5.5/pH 7.4 koff fold change (human ST2 (SPR analyte) [2]): 2.9 fold
koff (human ST2 (SPR analyte) [3]): 2.73e-05 s⁻¹
IC-50, human eosinophil IL-8 release assay (IL-33 and IL-3 stimulation) [4]: 50.4 pM
% inhib ST2-IL33 AS 12.5 ug/ml [5]: 98.8%
Kd (human ST2 (SPR analyte) [6]): 0.238 nM
koff (human ST2 (SPR analyte) [6]): 9.5e-05 s⁻¹
kon (human ST2 (SPR analyte) [6]): 400000 M⁻¹ s⁻¹
Kd [7]: 0.127 nM
koff [7]: 8.55e-05 s⁻¹
kon [7]: 674000 M⁻¹ s⁻¹
koff (human ST2 (SPR analyte) [8]): 7.91e-05 s⁻¹
% inhib ST2-AcP AS 12.5 ug/ml [10]: 68.7%

Results, then the binder that gave them:

Kd (human ST2 (SPR analyte) [11]): 0.0097 nM
Kd [12]: 0.0102 nM
B2: Ab30 (antibody, human IgG2, kappa, V domains shown)
VH: QVQLVESGGGVVQPGRSLRLSCTASGFTFSSHGMHWVRQAPGKGLEWVTIIWFDGNNKYYADSVEGRFTISRDNSKNTLFLQMNSLRAEDTAVYYCAREGAEQGFIDLWGRGTLVTVSS
VL: DIQMTQSPSSLSASVGDRVTITCQASQDISNYLNWYHQKPGKAPKLLIYDASNLETGVPSRFSGSGSGTDFTFTISGLQPEDIATYYCQQHDNLPLTFGGGTKVEIKR
notes: fully human anti-ST2 antibody

IC-50, cynomolgus monkey CD4+ T cell IFNγ release assay (IL-33, IL-2 and IL-12p70 stimulation) [1]: 40 pM
IC-50, human eosinophil IL-8 release assay (IL-33 and IL-3 stimulation) [4]: 40.7 pM
% inhib ST2-IL33 AS 12.5 ug/ml [5]: 98.9%
% inhib ST2-AcP AS 12.5 ug/ml [10]: 75.7%
B5: Ab7 (antibody, human IgG2, kappa, V domains shown)
VH: B4 VH
VL: B4 VL
notes: fully human anti-ST2 antibody

IC-50, cynomolgus monkey CD4+ T cell IFNγ release assay (IL-33, IL-2 and IL-12p70 stimulation) [1]: 12.9 pM
IC-50, human eosinophil IL-8 release assay (IL-33 and IL-3 stimulation) [4]: 73.3 pM
IC50 of inhibition of human IL-33-induced IL-5 production from human CD4+ T cells [9]: 64.5 nM
B6: Ab5 (antibody, human IgG2, kappa, V domains shown)
VH: EVQLVESGGGWVQPGGSLRLSCAASGFTFSSYDMYWVRQATGKGLEWVSGIDTVGDTYYPDSVKGRFTISRENAKNSVYLQMNTLRAGDTAVYYCVRGIYGDFYYYGLDVWGHGTTVTVSS
VL: B4 VL with H31Y, Y35N, H36N, Q50H, N79K, E86D

From patent US20140004107A1 (published 2014)
